Laboratory results as given in publication PMC6510891, “Functional duplication of Rap1 in methylotrophic yeasts”.

T1: HpRap1B (Hansenula polymorpha DL-1, UniProt W1QDN2 1-576)
T1 sequence: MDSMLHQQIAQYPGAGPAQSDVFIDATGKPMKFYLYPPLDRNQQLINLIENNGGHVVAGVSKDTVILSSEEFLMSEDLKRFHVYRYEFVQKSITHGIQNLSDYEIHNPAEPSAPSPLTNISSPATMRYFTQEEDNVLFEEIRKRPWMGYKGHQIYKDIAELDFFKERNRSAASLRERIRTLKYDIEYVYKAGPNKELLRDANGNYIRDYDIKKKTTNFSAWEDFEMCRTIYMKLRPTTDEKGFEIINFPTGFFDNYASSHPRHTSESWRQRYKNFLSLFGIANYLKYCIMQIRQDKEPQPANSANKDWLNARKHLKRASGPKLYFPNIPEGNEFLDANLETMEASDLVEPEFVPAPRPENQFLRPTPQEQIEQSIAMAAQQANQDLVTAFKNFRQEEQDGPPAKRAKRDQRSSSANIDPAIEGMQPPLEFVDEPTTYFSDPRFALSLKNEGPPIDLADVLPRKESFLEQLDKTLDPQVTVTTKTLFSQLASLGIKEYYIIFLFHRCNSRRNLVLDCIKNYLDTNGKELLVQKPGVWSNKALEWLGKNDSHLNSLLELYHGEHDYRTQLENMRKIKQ

T2: HpRap1A (Hansenula polymorpha DL-1, UniProt W1Q7Z6 1-613)
T2 sequence: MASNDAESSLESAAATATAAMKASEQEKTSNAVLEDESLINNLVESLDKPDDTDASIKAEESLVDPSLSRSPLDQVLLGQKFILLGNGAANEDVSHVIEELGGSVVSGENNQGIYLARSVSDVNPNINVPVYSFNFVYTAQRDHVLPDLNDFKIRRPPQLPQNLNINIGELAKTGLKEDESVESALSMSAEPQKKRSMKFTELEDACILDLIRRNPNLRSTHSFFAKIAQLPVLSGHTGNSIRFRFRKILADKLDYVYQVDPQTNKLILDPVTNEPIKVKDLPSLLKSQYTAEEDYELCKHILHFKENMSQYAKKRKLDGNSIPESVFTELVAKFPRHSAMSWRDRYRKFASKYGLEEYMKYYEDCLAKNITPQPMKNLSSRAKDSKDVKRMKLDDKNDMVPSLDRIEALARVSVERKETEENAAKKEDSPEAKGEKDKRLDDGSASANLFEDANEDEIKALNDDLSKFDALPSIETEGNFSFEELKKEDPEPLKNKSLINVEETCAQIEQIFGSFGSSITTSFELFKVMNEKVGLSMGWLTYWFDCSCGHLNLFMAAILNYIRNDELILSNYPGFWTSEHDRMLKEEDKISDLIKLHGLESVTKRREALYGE

B1: DEKBR (dsDNA)
DNA 1: GGATTGGTGGATTGGTGGATTGGT
DNA 2: ACCAATCCACCAATCCACCAATCC
B2: VIIrAbs (competitor) (dsDNA)
DNA 1: GGCAGGCGGTGTAGGGATGCGGC
DNA 2: GCCGCATCCCTACACCGCCTGCC
B3: PICPA (dsDNA)
DNA 1: GGATGCTGGATGCTGGATGCTGGATGCT
DNA 2: AGCATCCAGCATCCAGCATCCAGCATCC
B4: rnd1 (competitor) (dsDNA)
DNA 1: ACGACTCACTGTAGATACGACTCACTGTAGAT
DNA 2: ATCTACAGTGAGTCGTATCTACAGTGAGTCGT
B5: rnd2 (dsDNA)
DNA 1: AAATCTAGACATGAAAAAAAAAATGTTAGTAATCGAAATCTC
DNA 2: GAGATTTCGATTACTAACATTTTTTTTTTCATGTCTAGATTT
B6: PICME (dsDNA)
DNA 1: TAGAACTAGGTGTGCGGGGTATAATAG
DNA 2: CTATTATACCCCGCACACCTAGTTCTA
B7: PACTA (dsDNA)
DNA 1: TGTGAGTGGTGTGAGTGGTGTGAGTGG
DNA 2: CCACTCACACCACTCACACCACTCACA
B8: HANPO4 (competitor) (dsDNA)
DNA 1: GGGTGGCGGGGTGGCGGGGTGGCGGGGTGGCG
DNA 2: CGCCACCCCGCCACCCCGCCACCCCGCCACCC
B9: CANAR (competitor) (dsDNA)
DNA 1: GGTGTTGGGTGTTGGGTGTTGGG
DNA 2: CCCAACACCCAACACCCAACACC
B10: PICKU (SPR) (dsDNA)
DNA 1: TGAACTAGGAGCGAGGTGTGTTAC
DNA 2: GTAACACACCTCGCTCCTAGTTCACCTCTACGTCCTCCTGCTCC
B11: RPS14 (dsDNA)
DNA 1: GTGTTCAGGTGTGAGGTGTGTTT
DNA 2: AAACACACCTCACACCTGAACACCCTCTACGTCCTCCTGCTCC
B12: CANAL (SPR) (dsDNA)
DNA 1: ACTTCTTGGTGTACGGATGTCTA
DNA 2: TAGACATCCGTACACCAAGAAGTCCTCTACGTCCTCCTGCTCC
B13: RPS16 (dsDNA)
DNA 1: CAAACCCCGTGTAAGGGTGCCTA
DNA 2: TAGGCACCCTTACACGGGGTTTGCCTCTACGTCCTCCTGCTCC
B14: SACCE (competitor) (dsDNA)
DNA 1: GTGTGTGGGTGTGTGGGTGTGTG
DNA 2: CACACACCCACACACCCACACAC
B15: CANMA (dsDNA)
DNA 1: CTCGCTTGGTGTACGGATGCAGA
DNA 2: TCTGCATCCGTACACCAAGCGAG
B16: DEBHA (dsDNA)
DNA 1: GTGTTGAGGTGTAGGGATGTTGA
DNA 2: TCAACATCCCTACACCTCAACAC
B17: CANAL (competitor) (dsDNA)
DNA 1: ACTTCTTGGTGTACGGATGTCTA
DNA 2: TAGACATCCGTACACCAAGAAGT
B18: rnd1 (SPR) (dsDNA)
DNA 1: B4 DNA 1
DNA 2: ATCTACAGTGAGTCGTATCTACAGTGAGTCGTCCTCTACGTCCTCCTGCTCC
B19: RPL36b (dsDNA)
DNA 1: GGACAGTGGTGTAGGGGGTAGAG
DNA 2: CTCTACCCCCTACACCACTGTCCCCTCTACGTCCTCCTGCTCC
B20: CANAR (SPR) (dsDNA)
DNA 1: GGTGTTGGGTGTTGGGTGTTGGG
DNA 2: CCCAACACCCAACACCCAACACCCCTCTACGTCCTCCTGCTCC
B21: RPS22b (dsDNA)
DNA 1: AATGTTCGGTTCGAGGAGTTCTT
DNA 2: AAGAACTCCTCGAACCGAACATTCCTCTACGTCCTCCTGCTCC

What follows are binders tested against T1, HpRap1B (assay: competition SPR; score - vs PICKU surface; SPR: 10 mM HEPES-NaOH pH 7.5, 150 mM NaCl, 0.5 mM DTT, 0.05% Tween 20, 1 mg/ml BSA, 0.02 mg/ml salmon sperm DNA; competition 2 nM protein with 20 or 200 nM competitor. EMSA: 20 mM HEPES-NaOH pH 7.5, 50 mM NaCl, 0.2 mg/ml BSA, 5% glycerol, 0.1 mg/ml salmon sperm DNA, room temperature). Conditions: protein: recombinant; blunt.
B1: no binding.
B2: no binding.
B3: no binding.
B4: no binding.
B5: no binding.

What follows are binders tested against T2, HpRap1A (assay: competition SPR; score - vs VIIrAbs surface; SPR: 10 mM HEPES-NaOH pH 7.5, 150 mM NaCl, 0.5 mM DTT, 0.05% Tween 20, 1 mg/ml BSA, 0.02 mg/ml salmon sperm DNA; competition 2 nM protein with 20 or 200 nM competitor. EMSA: 20 mM HEPES-NaOH pH 7.5, 50 mM NaCl, 0.2 mg/ml BSA, 5% glycerol, 0.1 mg/ml salmon sperm DNA, room temperature). Conditions: protein: recombinant; blunt.
B1: no binding.
B6: no binding.
B3: no binding.
B4: no binding.
B7: no binding.
B5: no binding.
B8: no binding.
B9: no binding.

What follows are binders tested against T1, HpRap1B (assay: SPR; kinetic fit; SPR: 10 mM HEPES-NaOH pH 7.5, 150 mM NaCl, 0.5 mM DTT, 0.05% Tween 20, 1 mg/ml BSA, 0.02 mg/ml salmon sperm DNA; competition 2 nM protein with 20 or 200 nM competitor. EMSA: 20 mM HEPES-NaOH pH 7.5, 50 mM NaCl, 0.2 mg/ml BSA, 5% glycerol, 0.1 mg/ml salmon sperm DNA, room temperature). Conditions: protein: recombinant; 3' overhang 20 nt on strand 2.
For B10, the Kd was 0.27 ± 0.08 nM.
In the case of B11, the Kd is reported as 0.048 ± 0.007 nM.

Each binder was assayed against T2, HpRap1A in the same assay as above. Conditions: protein: recombinant; 3' overhang 20 nt on strand 2.
B12 gave a Kd of 0.05 ± 0.014 nM.
B13 showed a Kd of 0.5 ± 0.08 nM.

Each binder was assayed against T1, HpRap1B (assay: competition SPR; score ++ vs PICKU surface; SPR: 10 mM HEPES-NaOH pH 7.5, 150 mM NaCl, 0.5 mM DTT, 0.05% Tween 20, 1 mg/ml BSA, 0.02 mg/ml salmon sperm DNA; competition 2 nM protein with 20 or 200 nM competitor. EMSA: 20 mM HEPES-NaOH pH 7.5, 50 mM NaCl, 0.2 mg/ml BSA, 5% glycerol, 0.1 mg/ml salmon sperm DNA, room temperature). Conditions: protein: recombinant; blunt.
B6: binds.
B14: binds.
B9: binds.

What follows are binders tested against T2, HpRap1A (assay: competition SPR; score +++ vs VIIrAbs surface; SPR: 10 mM HEPES-NaOH pH 7.5, 150 mM NaCl, 0.5 mM DTT, 0.05% Tween 20, 1 mg/ml BSA, 0.02 mg/ml salmon sperm DNA; competition 2 nM protein with 20 or 200 nM competitor. EMSA: 20 mM HEPES-NaOH pH 7.5, 50 mM NaCl, 0.2 mg/ml BSA, 5% glycerol, 0.1 mg/ml salmon sperm DNA, room temperature). Conditions: protein: recombinant; blunt.
B15: binds.
B2: binds.
B16: binds.
B17: binds.

Each binder was assayed against T1, HpRap1B (assay: SPR; SPR: 10 mM HEPES-NaOH pH 7.5, 150 mM NaCl, 0.5 mM DTT, 0.05% Tween 20, 1 mg/ml BSA, 0.02 mg/ml salmon sperm DNA; competition 2 nM protein with 20 or 200 nM competitor. EMSA: 20 mM HEPES-NaOH pH 7.5, 50 mM NaCl, 0.2 mg/ml BSA, 5% glycerol, 0.1 mg/ml salmon sperm DNA, room temperature). Conditions: protein: recombinant; 3' overhang 20 nt on strand 2.
B13: no binding.
B18: no binding.

The binders below were run against T2, HpRap1A in the same assay as above. Conditions: protein: recombinant; 3' overhang 20 nt on strand 2.
B19: no binding.
B10: no binding.
B20: no binding.
B21: no binding.
B18: no binding.
B11: no binding.
